Assay results published in the supplement of paper PMC7877785.
± gives the uncertainty stated by the source.

Experiment: self-splicing fitness, log relative to wild type (ln ratio); higher = more splicing; Tetrahymena group I intron in knt gene, E. coli kanamycin selection, DiMSum; sequences stand for … in CUCUCU…GGAGGGAAAAGUUAUCAGGCAUGCACCUGGUAGCUAGUCUUUAAACCAAUAGAUUGCAUCGGUUUAAAAGGCAAGACCGUCAAAUUGCGGGAAAGGGGUCAACAGCCGUUCAGUACCAAGUCUCAGGGGAAACUUUGAGAUGGCCUUGCAAAGGGUAUGGUAAUAAGCUGACGGACAUGGUCCUAACCACGCAGCCAAGUCCUAAGUCAACAGAUCUUCUGUUGAUAUGGAUGCAGUUCACAGACUAAAUGUCGGUCGGGGAAGAUGUAUUCUUCUCAUAAGAUAUAGUCGGACCUCUCCUUAAUGGGAGCUAGCGGAUGAAGUGAUGCAACACUGGAGCCGCUGGGAACUAAUUUGUAUGCGAAAGUAUAUUGAUUAGUUUUGGAGUACUCGUGGUCG
Summary of the method: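 The eight P1ex-region nucleotides of an intron in the knt kanamycin-resistance gene on pET-22b(+) were all randomised and the library put into E. coli BL21(DE3). Six replicate transformations were grown overnight at 37°C or 30°C on LB agar with or without 25 μg/mL kanamycin, together with 100 μg/mL carbenicillin, 50 μM IPTG and 0.2% rhamnose. Colonies were pooled and amplicon-sequenced on an Illumina HiSeq 2500. Fitness from DiMSum is the error-weighted combination of wild-type-normalised replicate fold changes, kanamycin over none.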

Row | Sequence | self-splicing fitness (ln) (30 °C) | self-splicing fitness (ln) (37 °C)
1 | AUCAAGCAAUAUUACGACCC | -1.34 ± 0.17 | -0.0224 ± 0.3
2 | CUCGAGCAAUAUUACGCGGU | -4.23 ± 0.46 | -1.97 ± 0.27
3 | UGGAAGCAAUAUUACGAAUU |  | -1.99 ± 0.36
4 | UAGUAGCAAUAUUACGUCCG | -0.377 ± 0.21 | -0.323 ± 0.36
5 | UAUGAGCAAUAUUACGAACG | -2.98 ± 0.19 | -1.13 ± 0.16
6 | GCGCAGCAAUAUUACGGAUU | -0.79 ± 0.039 | -0.328 ± 0.056
7 | AAGUAGCAAUAUUACGUUCA | -0.86 ± 0.081 | 0.409 ± 0.096
8 | GUGCAGCAAUAUUACGGGCU | -1.95 ± 0.15 | -1.2 ± 0.12
9 | AGUCAGCAAUAUUACGACUC | -3.14 ± 0.25 | -2.21 ± 0.24
10 | CUGAAGCAAUAUUACGUAUU | -3.86 ± 0.22 | -2.85 ± 0.3
11 | AGUCAGCAAUAUUACGGUGA | -1.87 ± 0.12 | -0.192 ± 0.096
12 | CUUUAGCAAUAUUACGUCGC |  | -1.58 ± 0.34
13 | GGGUAGCAAUAUUACGUGGU | -2.59 ± 0.13 | -2.04 ± 0.17
14 | CUGUAGCAAUAUUACGCUCU | -3.47 ± 0.39 | 
15 | GGCAAGCAAUAUUACGGGAA | -1.34 ± 0.12 | -1.16 ± 0.13
16 | GGCGAGCAAUAUUACGUACA | -1 ± 0.18 | 0.151 ± 0.15
17 | GUGCAGCAAUAUUACGUCCA | -1.53 ± 0.28 | -0.793 ± 0.27
18 | UCAUAGCAAUAUUACGAAUA | -2.82 ± 0.28 | -1.04 ± 0.28
19 | GCGAAGCAAUAUUACGGCUU | -2.39 ± 0.36 | 
20 | UGUGAGCAAUAUUACGCGAA | -4.12 ± 0.29 | -2.54 ± 0.18
21 | GCAAAGCAAUAUUACGCCCU | -0.279 ± 0.2 | 0.0848 ± 0.16
22 | CCAAAGCAAUAUUACGGACG | -0.4 ± 0.064 | 0.287 ± 0.091
23 | CAGGAGCAAUAUUACGUCGG | -0.734 ± 0.099 | -0.66 ± 0.13
24 | CCGCAGCAAUAUUACGACGC | -3.71 ± 0.35 | -2.74 ± 0.27
25 | CAGCAGCAAUAUUACGCUGA | -3.02 ± 0.22 | -2.09 ± 0.18
26 | UAACAGCAAUAUUACGGUAG | -1.7 ± 0.07 | -0.0293 ± 0.076
27 | ACAUAGCAAUAUUACGAGAU | -4.08 ± 0.29 | -2.66 ± 0.26

Row | Sequence | self-splicing fitness (ln) (30 °C) | self-splicing fitness (ln) (37 °C)
28 | AGCCAGCAAUAUUACGCGGG | -3.29 ± 0.19 | -2.91 ± 0.28
29 | UUUGAGCAAUAUUACGUGGG | -2.17 ± 0.47 | -1.39 ± 0.3
30 | UUAGAGCAAUAUUACGCAUA | -3.06 ± 0.27 | -0.817 ± 0.3
31 | CACUAGCAAUAUUACGUGCU | -3.69 ± 0.2 | -2.55 ± 0.15
32 | AGACAGCAAUAUUACGCGUC | -3.19 ± 0.29 | -2.08 ± 0.24
33 | UUGGAGCAAUAUUACGGGGG | -2.12 ± 0.39 | -2.14 ± 0.5
34 | GCCGAGCAAUAUUACGGCUC |  | -1.49 ± 0.46
35 | AGUUAGCAAUAUUACGAAUA | -1.43 ± 0.14 | -0.681 ± 0.21
36 | ACAUAGCAAUAUUACGCCCC | -1.98 ± 0.39 | -0.782 ± 0.41
37 | UCUUAGCAAUAUUACGAAUA | -3.59 ± 0.47 | -0.936 ± 0.17
38 | ACGCAGCAAUAUUACGAGGA | -2.8 ± 0.16 | -2.26 ± 0.17
39 | CGGAAGCAAUAUUACGAUUU | -3.62 ± 0.2 | -1.51 ± 0.15
40 | AUCCAGCAAUAUUACGUGGU | -3.14 ± 0.12 | -2.9 ± 0.15
41 | AUCUAGCAAUAUUACGUGAA | -2.52 ± 0.12 | -0.861 ± 0.12
42 | CCGCAGCAAUAUUACGCAGG | -2.77 ± 0.11 | -2.93 ± 0.2
43 | UCACAGCAAUAUUACGUGAC | -3.26 ± 0.12 | -2.5 ± 0.22
44 | GAAUAGCAAUAUUACGCGUA | -2.17 ± 0.16 | -0.973 ± 0.13
45 | GUGCAGCAAUAUUACGGCCC | -0.475 ± 0.11 | -0.704 ± 0.17
46 | CGUCAGCAAUAUUACGUGUU | -3.17 ± 0.11 | -0.86 ± 0.099
47 | UCUUAGCAAUAUUACGAGAA | -2.37 ± 0.47 | 
48 | UCCGAGCAAUAUUACGAUCC |  | -0.617 ± 0.39
49 | GACCAGCAAUAUUACGUAUU | -0.471 ± 0.049 | -0.139 ± 0.062
50 | AGGUAGCAAUAUUACGAUCC | -0.0773 ± 0.022 | 0.212 ± 0.039
51 | GCCCAGCAAUAUUACGACUC | -0.305 ± 0.059 | 0.916 ± 0.087
52 | ACUAAGCAAUAUUACGCGCC | 0.0442 ± 0.11 | -0.687 ± 0.14
53 | CGUCAGCAAUAUUACGAAGC |  | -2.3 ± 0.5
54 | GGCAAGCAAUAUUACGUCUG | -3.13 ± 0.18 | -1.09 ± 0.094

Row | Sequence | self-splicing fitness (ln) (30 °C) | self-splicing fitness (ln) (37 °C)
55 | UGAAAGCAAUAUUACGCUAG | -1.59 ± 0.15 | 0.503 ± 0.15
56 | UUGUAGCAAUAUUACGGGAA | -2.13 ± 0.17 | -1.32 ± 0.16
57 | GGCUAGCAAUAUUACGGCCG | -1.45 ± 0.23 | -0.656 ± 0.22
58 | CAAUAGCAAUAUUACGCUUU | -4.34 ± 0.27 | -2.2 ± 0.19
59 | UCUAAGCAAUAUUACGCGGU | -3.76 ± 0.29 | -1.4 ± 0.2
60 | CAAGAGCAAUAUUACGUGGA | -3.87 ± 0.28 | -2.43 ± 0.15
61 | UAAUAGCAAUAUUACGACAA | -2.23 ± 0.16 | -1.01 ± 0.14
62 | CAUUAGCAAUAUUACGAAUC | -4.46 ± 0.31 | -2.49 ± 0.18
63 | CGCGAGCAAUAUUACGUCAU | -2.66 ± 0.23 | -1.97 ± 0.33
64 | GGGCAGCAAUAUUACGCACG | 0.202 ± 0.26 | -1.16 ± 0.19
65 | UAGUAGCAAUAUUACGGGUU | -3.97 ± 0.27 | -2.66 ± 0.2
66 | AUCUAGCAAUAUUACGAUCA | -1.92 ± 0.14 | -0.116 ± 0.18
67 | CAGCAGCAAUAUUACGCACU | -0.834 ± 0.1 | -1.8 ± 0.12
68 | CGCUAGCAAUAUUACGAGCU | -0.561 ± 0.11 | -0.7 ± 0.11
69 | AGCAAGCAAUAUUACGAUGA | -1.33 ± 0.085 | -0.569 ± 0.088
70 | UUUAAGCAAUAUUACGAAAG | -3.48 ± 0.32 | -1.54 ± 0.25
71 | CACUAGCAAUAUUACGACAG | -0.114 ± 0.076 | 0.0358 ± 0.079
72 | UUCGAGCAAUAUUACGGCUG | -2.58 ± 0.23 | -1.81 ± 0.22
73 | CGACAGCAAUAUUACGCGCC | -2.02 ± 0.13 | -0.187 ± 0.17
74 | CGUCAGCAAUAUUACGGAAU | -4.05 ± 0.37 | -2.83 ± 0.21
75 | CUUCAGCAAUAUUACGGAUG | -1.48 ± 0.069 | -0.191 ± 0.1
76 | GCGCAGCAAUAUUACGUGAG | -0.213 ± 0.054 | 0.445 ± 0.082
77 | GUAAAGCAAUAUUACGACAC | 0.603 ± 0.098 | 0.696 ± 0.12
78 | AGUGAGCAAUAUUACGUAUC | -3.05 ± 0.34 | 
79 | GUGAAGCAAUAUUACGCUGG | -1.42 ± 0.12 | -0.76 ± 0.13
